Common to all, as to test: EMSA
(In general: A gel shift assay detects complexes by their altered migration in electrophoresis.)

Data set [1] deals with T1, SUMO-TDP-43 RRM1,2 (human, UniProt Q13148 102-269).
Data set [2] deals with T1, SUMO-TDP-43 RRM1,2. This is another data set of the same source.
The target in data set [3] is T1, SUMO-TDP-43 RRM1,2. This is another data set of the same source.
The target in data set [4] is T1, SUMO-TDP-43 RRM1,2. The source holds these as a separate data set.

Like-named read-outs stand apart in the source and are kept apart here.

T1 sequence (Q13148 102-269): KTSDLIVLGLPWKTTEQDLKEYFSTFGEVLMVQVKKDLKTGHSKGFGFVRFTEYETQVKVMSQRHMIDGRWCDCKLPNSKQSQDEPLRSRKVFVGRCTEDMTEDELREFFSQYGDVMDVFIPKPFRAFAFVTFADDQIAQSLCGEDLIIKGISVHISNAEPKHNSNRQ

With GUGUGAAUGAAUGUGUGAAUGAAU (ssRNA, 2'-O-methyl and phosphorothioate; positions in Table S1 (not in material)) [('AUG12')2], the binding result with SUMO-TDP-43 RRM1,2 [1] is “binds”.

For AAAAAAAAAAAAAAAAAAAAAAAAAAAAAAAA (ssRNA, see Table S1 (not in material)) [A32], the binding result with SUMO-TDP-43 RRM1,2 [2] was “no binding”.

Take GUGUGUGUGUGU (ssRNA, see Table S1 (not in material)) [(GU)6]: in the data set with SUMO-TDP-43 RRM1,2 [3], the binding result is “binds”.

Regarding GUGUGUGUGUGUGUGUGUGUGUGUGUGUGUGU (ssRNA, 2'-O-methyl and phosphorothioate; positions in Table S1 (not in material)) [(GU)16], the binding result with SUMO-TDP-43 RRM1,2 [4] was “binds”.

Take CACACACACACACACACACACACACACACACA (ssRNA, see Table S1 (not in material)) [(CA)16]: the binding result with SUMO-TDP-43 RRM1,2 [2] was “no binding”.

These data come from article PMC11233918.
